The values that follow come from patent US20240016931A1 (JIANGSU HENGRUI PHARMACEUTICALS, published 2024).

The chains are these.
B1: hu3-06 (antibody, human IgG1, kappa, V domains shown)
VH: EVQLVQSGAEVKKPGASVKVSCKASGYTFTDDYMNWVRQAPGQRLEWMGIISPYNGGTSYNQKFKGRVTLTVDKSASTAYMELSSLRSEDTAVYYCAREDYDYDGYAMDHWGQGTTVTVSS
VL: EIVLTQSPATLSLSPGERATLSCRASSSVSYMHWYQQKPGQAPRPWIYATSNLASGVPARFSGSGSGTDYTLTISRLEPEDFAVYYCQQWSSNRTFGGGTKVEIKR
notes: IgG1-YTE, kappa
B2: hu3-05 (antibody, human IgG1, kappa, V domains shown)
VH: EVQLVQSGAEVKKPGASVKVSCKASGYTFTDDYMNWVRQAPGQRLEWMGIISPYNGGTSYNQKFKGRVTLTVDKSASTAYMELSSLRSEDTAVYYCAREDYDYDGYAMDHWGQGTTVTVSS
VL: EIVLTQSPATLSLSPGERATLSCRASSSVSYMHWYQQKPGQAPRPLIYATSNLASGIPARFSGSGSGTDYTLTISRLEPEDFAVYYCQQWSSNRTFGGGTKVEIKR
notes: IgG1-YTE, kappa
B3: hu3-08 (antibody, human IgG1, kappa, V domains shown)
VH: EVQLVQSGAEVKKPGASVKVSCKASGYTFTDDYMNWVKQAPGQRLEWIGIISPYNGGTSYNQKFKGRATLTVDKSASTAYMELSSLRSEDTAVYYCAREDYDYDGYAMDHWGQGTTVTVSS
VL: EIVLTQSPATLSLSPGERATLSCRASSSVSYMHWYQQKPGQAPRPLIYATSNLASGIPARFSGSGSGTDYTLTISRLEPEDFAVYYCQQWSSNRTFGGGTKVEIKR
notes: IgG1-YTE, kappa
B4: hu3-01 (antibody, human IgG1, kappa, V domains shown)
VH: EVQLVQSGAEVKKPGASVKVSCKASGYTFTDDYMNWVRQAPGQRLEWMGIISPYNGGTSYNQKFKGRVTITRDTSASTAYMELSSLRSEDTAVYYCAREDYDYDGYAMDHWGQGTTVTVSS
VL: EIVLTQSPATLSLSPGERATLSCRASSSVSYMHWYQQKPGQAPRPLIYATSNLASGIPARFSGSGSGTDYTLTISRLEPEDFAVYYCQQWSSNRTFGGGTKVEIKR
notes: IgG1-YTE, kappa
B5: hu3-04 (antibody, human IgG1, kappa, V domains shown)
VH: EVQLVQSGAEVKKPGASVKVSCKASGYTFTDDYMNWVRQAPGQRLEWMGIISPYNGGTSYNQKFKGRVTLTVDKSASTAYMELSSLRSEDTAVYYCAREDYDYDGYAMDHWGQGTTVTVSS
VL: EIVLTQSPATLSLSPGERATLSCRASSSVSYMHWYQQKPGQAPRLLIYATSNLASGIPARFSGSGSGTDFTLTISRLEPEDFAVYYCQQWSSNRTFGGGTKVEIKR
notes: IgG1-YTE, kappa
B6: hu3-07 (antibody, human IgG1, kappa, V domains shown)
VH: EVQLVQSGAEVKKPGASVKVSCKASGYTFTDDYMNWVRQAPGQRLEWMGIISPYNGGTSYNQKFKGRVTLTVDKSASTAYMELSSLRSEDTAVYYCAREDYDYDGYAMDHWGQGTTVTVSS
VL: EIVLTQSPATLSLSPGERATLSCRASSSVSYMHWYQQKPGQAPRPWIYATSNLASGVPARFSGSGSGTSYTLTISRLEPEDFAVYYCQQWSSNRTFGGGTKVEIKR
notes: IgG1-YTE, kappa
B7: hu3-03 (antibody, human IgG1, kappa, V domains shown)
VH: EVQLVQSGAEVKKPGASVKVSCKASGYTFTDDYMNWVRQAPGQRLEWMGIISPYNGGTSYNQKFKGRVTITRDTSASTAYMELSSLRSEDTAVYYCAREDYDYDGYAMDHWGQGTTVTVSS
VL: EIVLTQSPATLSLSPGERATLSCRASSSVSYMHWYQQKPGQAPRPWIYATSNLASGVPARFSGSGSGTSYTLTISRLEPEDFAVYYCQQWSSNRTFGGGTKVEIKR
notes: IgG1-YTE, kappa
B8: hu3-02 (antibody, human IgG1, kappa, V domains shown)
VH: EVQLVQSGAEVKKPGASVKVSCKASGYTFTDDYMNWVRQAPGQRLEWMGIISPYNGGTSYNQKFKGRVTITRDTSASTAYMELSSLRSEDTAVYYCAREDYDYDGYAMDHWGQGTTVTVSS
VL: EIVLTQSPATLSLSPGERATLSCRASSSVSYMHWYQQKPGQAPRPWIYATSNLASGVPARFSGSGSGTDYTLTISRLEPEDFAVYYCQQWSSNRTFGGGTKVEIKR
notes: IgG1-YTE, kappa

The test has as its target T1, His-tagged human TSLP antigen (huTSLP-his) (human).
T1 construct: Secreted from HEK293E and purified on nickel; whole entry named; also called Human TSLP-his
The test can be described thus: ELISA, coated huTSLP-his.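 Note: binding of antibodies to plate-bound TSLP read as absorbance at 450 nm after TMB colour development, EC50 derived from binding curves.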 In general terms: An ELISA detects its analyte on a solid surface through an enzyme-linked reagent.
Description: The plate was incubated at 4° C. overnight. After the liquid was discarded, 5% skim milk (skim milk powder from Brightdairy) blocking solution diluted with PBS was added at 200 μL/well, and the plate was incubated in an incubator at 37° C. for 2 h for blocking. After the blocking, the blocking solution was discarded, and the plate was washed 3 times with a PBST buffer (PBS containing 0.1% (v/v) tween-20, pH 7.4). […] After the incubation, the plate was washed 3 times with PBST. […] After the plate was washed 6 times with PBST, a TMB chromogenic substrate (KPL, 52-00-03) was added at 50 μL/well, and the plate was incubated at room temperature for 10-15 min. Then, 1 M H₂SO₄ was added at 50 μL/well to stop the reaction. The absorbance at 450 nm was read with a NOVOStar microplate reader, and the EC₅₀ values for the binding of the TSLP antibodies to TSLP were calculated.
As to B1, the concentration giving a half-maximal response (EC50) (usually the concentration at which the effect is half-maximal) worked out at 0.594 nM.

Turning to B2, the midpoint of the response, the EC50, lay at 0.517 nM.

B3 registered an EC50 of 0.469 nM.

B4 gave an EC50 of 0.849 nM.

As for B5, it took 0.435 nM to reach a half-maximal effect (EC50). This EC50 is about 2-fold lower than that of the molecule before.

Regarding B6, a half-maximal effect (EC50) was put at 0.385 nM.

Regarding B7, the EC50 is 0.554 nM. The EC50 values of the last two molecules are within 1.5-fold of each other.

In turn, B8 yielded an EC50 of 0.628 nM.
